System: mouse J774E cells
Assay: Internalization (uptake) of glucocerebrosidase into J774E macrophage cells, with or without mannan
Format: cell-based
Conditions: for Glucocerebrosidase Activity, Absolute / Glucocerebrosidase Activity, Background Corrected / uptake of GA-GCB over background: GA-GCB 10 μg/mL; for Glucocerebrosidase Activity, Absolute: 4 hours at 37° C.; for Glucocerebrosidase Activity, Background Corrected / uptake of GA-GCB over background: 4 hours; for Inhibition (%) of uptake by mannan: mannan 2 μg/mL, competitor for the mannose receptor
Protocol: GA-GCB produced in HT-1080 cells was used in an in vitro assay to determine uptake efficiency in a mouse macrophage cell line. The specific objective of the experiment was to determine the absolute and mannose receptor-specific uptake of GA-GCB in mouse J774E cells. One day prior to assay, J774E cells were plated at 50,000 cells/cm^2 in 12 well plates in Growth Medium. For the assay, 0.5 mL of Production Medium (DMEM/F12), 0% calf serum) containing 50 nM vitamin D3 (1,2-5, Dihydroxy vitamin D3) was added to the cells. Unpurified GA-GCB (from harvest 4, Table 1) was added to the test wells at a final concentration of 10 μg/mL in the presence or absence of 2 μg/mL mannan (a competitor for the mannose receptor). Three different forms of GA-GCB were used: GA-GCB from cells treated with kifunensine (1 μg/mL), GA-GCB from cells treated with swainsonine (1 μg/mL), and GA-GCB (1 μg/mL) from untreated cells. Control wells received no GA-GCB. The wells were incubated for 4 hours at 37° C., then washed extensively in buffered saline, scraped into GA-GCB enzyme reaction buffer, passed through 2 freeze/thaw cycles, and clarified by centrifugation. The supernantant was then quantitatively tested for enzyme activity and total protein. Internalization of GA-GCB into mouse J744E cells is shown in Table 2 and is reported as Units/mg of cell lysate. […] Thus, the inhibition of intracellular mannosidases by either kifunensine or swainsonine results in GA-GCB that can be transported into cells efficiently via the mannose receptor, with kifunensine causing an approximately 2-fold greater uptake than swainsonine. Improvement in targeting of GA-GCB to cells via mannose receptors can therefore be optimized by production of GA-GCB in the presence of kifunensine or swainsonine.

B1: GA-GCB from kifunensine treated cells: unpurified gene-activated glucocerebrosidase from HT-1080 cells treated with kifunensine (1 μg/mL) (protein)
chain: ARPCIPKSFGYSSVVCVCNATYCDSFDPPTFPALGTFSRYESTRSGRRMELSMGPIQANHTGTGLLLTLQPEQKFQKVKGFGGAMTDAAALNILALSPPAQNLLLKSYFSEEGIGYNIIRVPMASCDFSIRTYTYADTPDDFQLHNFSLPEEDTKLKIPLIHRALQLAQRPVSLLASPWTSPTWLKTNGAVNGKGSLKGQPGDIYHQTWARYFVKFLDAYAEHKLQFWAVTAENEPSAGLLSGYPFQCLGFTPEHQRDFIARDLGPTLANSTHHNVRLLMLDDQRLLLPHWAKVVLTDPEAAKYVHGIAVHWYLDFLAPAKATLGETHRLFPNTMLFASEACVGSKFWEQSVRLGSWDRGMQYSHSIITNLLYHVVGWTDWNLALNPEGGPNWVRNFVDSPIIVDITKDTFYKQPMFYHLGHFSKFIPEGSQRVGLVASQKNDLDAVALMHPDGSAVVVVLNRSSKDVPLTIKDPAVGFLETISPGYSIHTYLWRRQ
+ mannan 2 μg/mL
  Glucocerebrosidase Activity, Absolute: 2977 Units/mg cell lysate
  Glucocerebrosidase Activity, Background Corrected: 2322 Units/mg cell lysate
Without mannan
  Glucocerebrosidase Activity, Absolute: 9185 Units/mg cell lysate
  Glucocerebrosidase Activity, Background Corrected: 8530 Units/mg cell lysate
  uptake of GA-GCB over background: 14 fold
  Inhibition (%) of uptake by mannan: 73%

B2: GA-GCB from untreated cells: unpurified gene-activated glucocerebrosidase from HT-1080 cells without drug treatment (protein)
chain: B1 chain
+ mannan 2 μg/mL
  Glucocerebrosidase Activity, Absolute: 1678 Units/mg cell lysate
  Glucocerebrosidase Activity, Background Corrected: 1023 Units/mg cell lysate
Without mannan
  Glucocerebrosidase Activity, Absolute: 2816 Units/mg cell lysate
  Glucocerebrosidase Activity, Background Corrected: 2161 Units/mg cell lysate
  uptake of GA-GCB over background: approximately 3 fold
  Inhibition (%) of uptake by mannan: 53%

B3: hmGCB: glucocerebrosidase having at least one carbohydrate chain having four or more mannose residues from a precursor oligosaccharide (protein)
chain: B1 chain
Summary statement
  hmGCB uptake by macrophages compared to uptake of GCB secreted from cells: increased

B4: GA-GCB from swainsonine treated cells: unpurified gene-activated glucocerebrosidase from HT-1080 cells treated with swainsonine (1 μg/mL) (protein)
chain: B1 chain
+ mannan 2 μg/mL
  Glucocerebrosidase Activity, Absolute: 2036 Units/mg cell lysate
  Glucocerebrosidase Activity, Background Corrected: 1381 Units/mg cell lysate
Without mannan
  Glucocerebrosidase Activity, Absolute: 4787 Units/mg cell lysate
  Glucocerebrosidase Activity, Background Corrected: 4132 Units/mg cell lysate
  uptake of GA-GCB over background: 7 fold
  Inhibition (%) of uptake by mannan: 67%

Reference: US7138262B1, “High mannose proteins and methods of making high mannose proteins” (Shire Human Genetic Therapies, Inc., priority 2000, dated 2006)
